In patent publication US12281340B2, “Method of producing N-acyl-amino group-containing compound” (AJINOMOTO CO., INC., priority 2018, dated 2025):

Columns and labels:
Assay type in all cases: biochemical
[1] = Synthesis of N-lauroylamino acid / N-lauroylamino acid derivative using purified acylamino acid synthetase, UPLC-MS detection; design: key: +: Detected; −: Not detected; settings: +ATP
[2] = as above; design: key: +: Detected; −: Not detected; settings: +ATP; remark: listed apart in the source
Method: 0.2 mL of a reaction solution containing 50 mM Tris-HCl, 5 mM amino acid or D-amino acid derivative, 5 mM sodium laurate, 10 mM ATP, 10 mM MgCl2, 1 mM DTT, 200 μg/mL of the purified enzyme, pH 8.0 was incubated at 25° C. for 24 hours. After completion of the reaction, 0.8 mL of the reaction stop solution (1% (v/v) phosphoric acid, 75% (v/v) methanol) was added, and the mixture was filtrated through the filter followed by being subjected to the UPLC-MS analysis to detect a signal of a molecular weight corresponding to an N-lauroyl-amino acid or an N-lauroyl-amino acid derivative. The condition for the UPLC-MS analysis is as described in Example 2.
As a result of the UPLC-MS analysis, the signal of the molecular weight corresponding to the N-lauroyl-amino acid or the N-lauroyl-amino acid derivative was confirmed in the reaction solution containing the enzyme in combination with the amino acid or the amino acid derivative shown in Table 5 below.

[3] = Quantification of produced N-acylamino acid (UV 210 nm) using purified acylamino acid synthetase; settings: 5 mM L-Asp, 5 mM sodium fatty acid, 200 μg/mL enzyme, 25° C., 24 hours
Method: 0.1 mL of a reaction solution containing 50 mM Tris-HCl, 5 mM amino acid, 5 mM sodium fatty acid, 10 mM ATP, 10 mM MgCl2, 1 mM DTT, 200 μg/mL of the purified enzyme, pH 8.0 was incubated at 25° C. for 24 hours. As amino acids, L-Asp was used in AtGH3-6, OsGH3-8, AtGH3-5, AtGH3-12, and Gly or L-Ala was used in CfHP. After completion of the reaction, 0.4 mL of the reaction stop solution (1% (v/v) phosphoric acid, 75% (v/v) methanol) was added, and the mixture was filtrated through the filter followed by being subjected to the UPLC-MS analysis to quantify the produced N-acylamino acid by detection at UV 210 nm. The condition for the UPLC-MS analysis is as descried in Example 2. As a result of the analysis, 3.9 mM of Nα-capryloyl-L-aspartic acid, 4.5 mM of Nα-caprinoyl-L-aspartic acid and 2.2 mM of Nα-lauroyl-L-aspartic acid were detected when AtGH3-6 was used; 4.3 mM of Nα-capryloyl-L-aspartic acid, 4.6 mM of Nα-caprinoyl-L-aspartic acid and 3.5 mM of Nα-lauroyl-L-aspartic acid were detected when OsGH3-8 was used; 4.1 mM of Nα-capryloyl-L-aspartic acid, 4.6 mM of Nα-caprinoyl-L-aspartic acid and 2.5 mM of Nα-lauroyl-L-aspartic acid were detected when AtGH3-5 was used; 1.6 mM of Nα-capryloyl-L-aspartic acid, 0.6 mM of Nα-caprinoyl-L-aspartic acid and 0.2 mM of Nα-lauroyl-L-aspartic acid were detected when AtGH3-12 was used; 4.5 mM of Nα-capryloylglycine, 4.6 mM of Nα-caprinoylglycine, 0.1 mM of Nα-lauroylglycine, 3.1 mM of Nα-capryloyl-L-alanine, 3.6 mM of Nα-caprinoyl-L-alanine and 0.4 mM of Nα-lauroyl-L-alanine were detected when CfHP was used.

[4] = Synthesis of N-caprinoylamino acid using purified acylamino acid synthetase, UPLC-MS detection; design: key: +: Detected; −: Not detected; settings: +ATP
Outline: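 Purified enzyme (50 μg) with 5 mM amino acid, 5 mM sodium caprate, 10 mM ATP, 10 mM MgCl2, 1 mM DTT in Tris-HCl pH 8.0, 24 h at 25° C; product detected by UPLC-MS (ESI-negative) as the N-caprinoyl amino acid mass signal.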

B1: AtGH3-12: 4-substituted benzoates-glutamate ligase GH3.12 from Arabidopsis thaliana, His-tagged (protein, listed as Arabidopsis thaliana)
chain: MKPIFDINETFEKQLKDLTSNVKSIQDNLLEEIITPNTKTEYLQRFLIDRFDKELFKKNVPIVSYEDIKPYLDRVVNGESSDVISARTITGFLLSSGTSGGAQKMMPWNNKYLDNLTFIYDLRMQVITKHVKGVEEGKGMMFLFTKQESMTPSGLPARVATSSYFKSDYFKNRPSNWYYSYTSPDEVILCPNNTESLYCHLLCGLVQRDEVVRTGSIFASVMVRAIEVLKNSWEELCSNIRSGHLSNWVTDLGCQNSVSLVLGGPRPELADTIEEICNQNSWKGIVKRLWPNTKYIETVVTGSMGQYVPMLNYYCNDLPLVSTTYGSSETTFGINLDPLCKPEDVSYTFMPNMSYFEFIPMDGGDKNDVVDLEDVKLGCTYEPVVTNFAGLYRMRVGDIVLVTGFYNNAPQFKFVRRENVVLSIDSDKTNEEDLFKAVSQAKLVLESSGLDLKDFTSYADTSTFPGHYVVYLEVDTKEGEEKETAQFELDEEALSTCCLVMEESLDNVYKRCRFKDGSIGPLEIRVVRQGTFDSLMDFFISQGASTGQYKTPRCIKSGKALQVLETCVVAKFFSI
modifications: His-tag
notes: 4-substituted benzoates-glutamate ligase GH3.12 from Arabidopsis thaliana, His-tagged
signal of molecular weight corresponding to N-lauroyl amino acid derivative ([1]; substrates Sarcosine and sodium laurate): − | signal of molecular weight corresponding to N-lauroyl amino acid derivative ([1]; substrates Taurine and sodium laurate): + | signal of molecular weight corresponding to N-lauroyl amino acid ([2]; substrates Gly and sodium laurate): − | signal of molecular weight corresponding to N-lauroyl amino acid ([2]; substrates L-Ala and sodium laurate): − | signal of molecular weight corresponding to N-lauroyl amino acid ([2]; substrates L-Arg and sodium laurate): − | signal of molecular weight corresponding to N-lauroyl amino acid ([2]; substrates L-Asp and sodium laurate): + | signal of molecular weight corresponding to N-lauroyl amino acid ([2]; substrates L-Glu and sodium laurate): − | signal of molecular weight corresponding to N-lauroyl amino acid ([2]; substrates L-Lys and sodium laurate): + | signal of molecular weight corresponding to N-lauroyl amino acid ([2]; substrates L-Thr and sodium laurate): + | signal of molecular weight corresponding to N-lauroyl amino acid ([2]; substrates β-Ala and sodium laurate): − | Nα-caprinoyl-L-aspartic acid detected [3]: 0.6 mM | Nα-capryloyl-L-aspartic acid detected [3]: 1.6 mM | Nα-lauroyl-L-aspartic acid detected [3]: 0.2 mM | signal of molecular weight corresponding to N-caprinoyl amino acid ([4]; substrates GABA and sodium caprate): + | signal of molecular weight corresponding to N-caprinoyl amino acid ([4]; substrates Gly and sodium caprate): + | signal of molecular weight corresponding to N-caprinoyl amino acid ([4]; substrates L-Ala and sodium caprate): + | signal of molecular weight corresponding to N-caprinoyl amino acid ([4]; substrates L-Arg and sodium caprate): + | signal of molecular weight corresponding to N-caprinoyl amino acid ([4]; substrates L-Asn and sodium caprate): + | signal of molecular weight corresponding to N-caprinoyl amino acid ([4]; substrates L-Asp and sodium caprate): + | signal of molecular weight corresponding to N-caprinoyl amino acid ([4]; substrates L-Cys and sodium caprate): + | signal of molecular weight corresponding to N-caprinoyl amino acid ([4]; substrates L-Gln and sodium caprate): + | signal of molecular weight corresponding to N-caprinoyl amino acid ([4]; substrates L-Glu and sodium caprate): + | signal of molecular weight corresponding to N-caprinoyl amino acid ([4]; substrates L-His and sodium caprate): + | signal of molecular weight corresponding to N-caprinoyl amino acid ([4]; substrates L-Ile and sodium caprate): + | signal of molecular weight corresponding to N-caprinoyl amino acid ([4]; substrates L-Leu and sodium caprate): + | signal of molecular weight corresponding to N-caprinoyl amino acid ([4]; substrates L-Lys and sodium caprate): + | signal of molecular weight corresponding to N-caprinoyl amino acid ([4]; substrates L-Met and sodium caprate): + | signal of molecular weight corresponding to N-caprinoyl amino acid ([4]; substrates L-Phe and sodium caprate): + | signal of molecular weight corresponding to N-caprinoyl amino acid ([4]; substrates L-Pro and sodium caprate): + | signal of molecular weight corresponding to N-caprinoyl amino acid ([4]; substrates L-Ser and sodium caprate): + | signal of molecular weight corresponding to N-caprinoyl amino acid ([4]; substrates L-Thr and sodium caprate): + | signal of molecular weight corresponding to N-caprinoyl amino acid ([4]; substrates L-Trp and sodium caprate): + | signal of molecular weight corresponding to N-caprinoyl amino acid ([4]; substrates L-Tyr and sodium caprate): + | signal of molecular weight corresponding to N-caprinoyl amino acid ([4]; substrates L-Val and sodium caprate): + | signal of molecular weight corresponding to N-caprinoyl amino acid ([4]; substrates β-Ala and sodium caprate): +
